These results are taken from the RNAGym collection of RNA variant scans (doi:10.1073/pnas.2313332121).

The labels stand for the following.
B1: TPR t1 (parent)
chain: GACCAAUCUGCCCUCAGAGCUCGAGAACAUCUUCGGAUGCAGAGGAGGCAGGCUUCGGUGGCGCGAUAGCGCCAACGUCCUCAACCUCCAAUGCAUCCCACCACAUGAUGAUGCCUGAAGAGCCUUGGUUUUUUG

This data set covers variants of B1. Put plainly: polymerase ribozyme fitness, log enrichment relative to wild type (log ratio); higher = more active; in vitro selection for triplet polymerase activity. In a few lines: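 Fitness is a logarithmic measure of how a genotype enriched relative to the wild type, with replicate averages weighted by inverse variance. The logarithm uses base 2, and enrichment came from Illumina sequencing of input and output libraries. Those libraries were PCR-built, transcribed mutants of each subunit of a heterodimeric triplet polymerase ribozyme, passed through one triplicate in vitro selection round that included frozen incubation at −7 °C, gel excision of extended constructs and streptavidin-bead capture. Genotypes were kept only if they had ≥10 input reads and ≥1 read per output.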
As to GACCAAUCUGCCCUCAGAGCUCGAGAACAUCUUCGGAUGCAGAGGAGGCAGGUUUCGGUGGCGCGAUAGCGGCAACGUCCUCAACCUCCAAUGCAUCCCACCACAUGAUGAUGCCUGAAGAGCCUUGGUUUUUUG [C53U C72G], the “polymerase ribozyme fitness (log ratio)” value is -0.46.

For GACCAAUCUGCCCUCAGAGCUCGAGAACAUCUUCGGAUGCAGAGGAGGCAGGUUUCGGUGGCGCGAUAGCGUCAACGUCCUCAACCUCCAAUGCAUCCCACCACAUGAUGAUGCCUGAAGAGCCUUGGUUUUUUG [C53U C72U], the “polymerase ribozyme fitness (log ratio)” value is -0.842. The figure for GACCAAUCUGCCCUCAGAGCUCGAGAACAUCUUCGGAUGCAGAGGAGGCAGGUUUCGGUGGCGCGAUAGCGCCAACGUCUCCAACCUCCAAUGCAUCCCACCACAUGAUGAUGCCUGAAGAGCCUUGGUUUUUUG [C53U C80U U81C] is -4.05.

Consider GACCAAUCUGCCCUCAGAGCUCGAGAACAUCUUCGGAUGCAGAGGAGGCAGGUUUCGGUGGCGCGAUAGCGCGAACGUCCUCAAUCUCCAAUGCAUCCCACAACAUGAUGAUGCCUGAAGAGCCUUGGUUUUUUG [C53U C73G C85U C102A], for which the “polymerase ribozyme fitness (log ratio)” value was -5.04. With GACCAAUCUGCCCUCAGAGCUCGAGAACAUCUUCGGAUGCAGAGGAGGCAGGUUUCGGUGGCGCGAUAGCGGCAACGUACUCAACCUCCAAUGCAUCCCACCACAUGAUGAUGCCUGAAGAGCCUUGGUUUUUUG [C53U C72G C79A], the “polymerase ribozyme fitness (log ratio)” value is -1.72. For GACCAAUCUGCCCUCAGAGCUCGAGAACAUCUUCGGAUGCAGAGGAGGCAGGUUUCGGUGGCGCGAUAGCGCGAACGUCCUCAACCUCUAAUGCAUCCCACCACAUGAUGAGGCCUGAAGAGCCUUGGUUUUUUG [C53U C73G C89U U112G], the “polymerase ribozyme fitness (log ratio)” value is -1. In the case of GACCAAUCUGCCCUCAGAGCUCGAGAACAUCUUCGGAUGCAGAGGAGGCAGGUUUCGGUGGCGCGAUAGCGACAACGUCCUCAACCUCCAAUGCAUCCCACCACAUGAUGAUGCCUGAAGAGACUUGUUUUUUUG [C53U C72A C123A G128U] it was -0.319; in that of GACCAAUCUGCCCUCAGAGCUCGAGAACAUCUUCGGAUGCAGAGGAGGCAGGUUUCGGUGGCGCGAUAGCGACAACGUCCUCAACCUCCAGUGCAUCCCACCACAUGAUGAUGCCUGAAGAGCCUUGGUUUUUUG [C53U C72A A91G], -1.6; in that of GACCAAUCUGCCCUCAGAGCUCGAGAACAUCUUCGGAUGCAGAGGAGGCAGGUUUCGGUGGCGCGAUAGCGCCAAUGUCCUCAACCUCCAAUGCAUCCCACCACAUGAUGAUGCCUGAAGAGCCUUGGUUUUUUG [C53U C76U], -0.497. The figure for GACCAAUCUGCCCUCAGAGCUCGAGAACAUCUUCGGAUGCAGAGGAGGCAGGUUUCGGUGGCGCGAUAGCGACAACGUCCUCAACCUCCACUGGAUCCCAACACAUGAUGAUGCCUGAAGAGCCUUGGUUUUUUG [C53U C72A A91C C94G C101A] is -4.4; for GACCAAUCUGCCCUCAGAGCUCGAGAACAUCUUCGGAUGCAGAGGAGGCAGGUUUCGGUGGCGCGAUAGCGCCAACGUCCUCAACCUCAAAUGCAUCCCACCACAUGAUGAUGCCUGAAGAGCCUUGGUUUUUUG [C53U C89A] it is -1.29; for GACCAAUCUGCCCUCAGAGCUCGAGAACAUCUUCGGAUGCAGAGGAGGCAGGUUUCGGUGGCGCGAUAGCGUCAACGUCCUCAACCUCCAAUGCAUCCCACCACAUGAUGUUGCCUGAAGAGCCUUGGUUUUUUG [C53U C72U A111U] it is -3.11. As to GACCAAUCUGCCCUCAGAGCUCGAGAACAUCUUCGGAUGCAGAGGAGGCAGGUUUCGGUGGCGCGAUAGCGACAACGUCCGCAACCUCCAAUGCAUCCCACCACAUGAUGAUGCCUGAAAAGCCUUGGAUUUUUG [C53U C72A U81G G120A U129A], the “polymerase ribozyme fitness (log ratio)” value is -1.13.

With GACCAAUCUGCCCUCAGAGCUCGAGAACAUCUUCGGAUGCAGAGGAGGCAGGUUUCGGUGGCGCGAUAGCGCCAACGUCCUCAACCUUCAAUGCAUCCCACCACAUGAUGAUGCCUGAAGAGCCUUGGUUUUUUG [C53U C88U], the “polymerase ribozyme fitness (log ratio)” value was determined as 0.129. With GACCAAUCUGCCCUCAGAGCUCGAGAACAUCUUCGGAUGCAGAGGAGGCAGGUUUCGGUGGCGCGAUAGCGCCAACGUCCUCAACCUACAAUGCAUCCCACCACAUGAUCAUGCCUGAAGAGCCUUGGUUUUUUG [C53U C88A G110C], the “polymerase ribozyme fitness (log ratio)” value was -4.54. Turning to GACCAAUCUGCCCUCAGAGCUCGAGAACAUCUUCGGAUGCAGAGGAGGCAGGUUUCGGUGGCGCGAUAGCGCCAAUGUCCUCAACCUCCAAUGCAUCCCACCACAUGAUGAUGCCUGAAGAGCCUUGAUUUUUUG [C53U C76U G128A], the “polymerase ribozyme fitness (log ratio)” value was -2.11. The figure for GACCAAUCUGCCCUCAGAGCUCGAGAACAUCUUCGGAUGCAGAGGAGGCAGGUUUCGGUGGCGCGAUAGCGGCAACGUCCUCAACCUCCAAUGCAUCCCACCAAAUGAUGAUGCCUGAAGCGCCUUGGUUUUUUG [C53U C72G C104A A121C] is -0.137; for GACCAAUCUGCCCUCAGAGCUCGAGAACAUCUUCGGAUGCAGAGGAGGCAGGUUUCGGUGGCGCGAUAGCGCCAACGUGCUCAACCUCCAAUGCAUCCCACCACAUGAUGAUCCCUGAAGAGCCUUGGUUUUUUG [C53U C79G G113C] it is -3.6. In the case of GACCAAUCUGCCCUCAGAGCUCGAGAACAUCUUCGGAUGCAGAGGAGGCAGGUUUCGGUGGCGCGAUAGCGUCAACGUCCUCAACCGCCAAUGCAUCCCACCACAUGAUGAUGCCUCAAGAGCCUUGGUUUUUUG [C53U C72U U87G G117C] it was -3.81; in that of GACCAAUCUGCCCUCAGAGCUCGAGAACAUCUUCGGAUGCAGAGGAGGCAGGUUUCGGUGGCGCGAUAGCGCUAACGUCCUCAACCUCCGAUGCAUCCCACCACAUGAUGAUGCCUGAAGAGCCUUGGUUUUUUG [C53U C73U A90G], 0.151; in that of GACCAAUCUGCCCUCAGAGCUCGAGAACAUCUUCGGAUGCAGAGGAGGCAGGUUUCGGUGGCGCGAUAGCGCUAACGUACUCAACCUCCAAUGCAUCCCACCACAUGAUGAUGCCUGAAGAGCCUUCGUUUUUUG [C53U C73U C79A G127C], -1.71.
